The data set is described as follows: label from the status in PepcDB records.

This is an account of results in a protein production outcome set (Wang et al. 2014).

Regarding “MQDILFDFISTYISLTEDEKNALLSLDLFRSVPKGTILLKEGQKSQESYFVLKGCIRIYYIIDGEEKTTAFYTEMDALTPPCVIHNAPSEYFISCIEDSILTVSNLEMEAEINSKFPKFELMCRMLSEELLAKQQIDFDAFKTSSPEQRYLNVLQNRPDLIQRVPQHQLASFLGIKPQSLSRLRARIVDKKS”, the protein production result was “not failed”.

On to “MQDLTSAAAYYHQSMMMTTAKQNQPELPEQEQLKCPRCDSPNTKFCYYNNYNLSQPRHFCKNCRRYWTKGGALRNIPVGGGTRKSNKRSGSSPSSNLKNQTVAEKPDHHGSGSEEKEERVSGQEMNPTRMLYGLPVGDPNGASFSSLLASNMQMGGLVYESGSRWLPGMDLGLGSVRRSDDTWTDLAMNRMEKN”, for which the protein production result was “failed”. As for “MQDSRPHPHDWNVSTDEAKRIQRRLASEVTERALPDGGETVAGIDVSVRDDTAQAAVSVLRLPELDVVDEATHRCEVPFPYVPGLLSFREMPAVLPALERLHSTPDVFVTDSHGAAHPRRFGLACHLGVLLDAPAIGVAKSILVGAPQGELGPEKGSRVPLVDDGETVGTVLRTRTDVNPVYVSVGHRCTLDGAADLMLDCSPRYKIPEPTRQAHKLSRAEG”, the entry is “failed”; as for “MQDTPQRGQRSKVRWLVAGLMWAAIAINYIDRTVLSAAAPHIQKEFHLSAVEMGVVMSAFFWSYALLQLPAGILADRFGQKKVLGFAVLWWSLATAVTGLATGFKSLVGLRVALGVGEAGAYPSNAGITSRWFPKQERATVAAIFDSGSKLGSAIALPLIAWLLVTFDWKITFTVAGSLGIVWCVVWALVFRDSPAEHEGVNAAELAHIQKGLPPARGADAPAMPWTKLLTHRNVWAMCIGFFMINYNSYFFITWLPTYLVKERGMGLMEMGFMASLPLFVSMFVEVFAGWASDRVYASGRLSLTATRKLFLVIGLVMASSIGLAAFAQSAVVAVILLCIAKSGTTVAASQVWALPADVAPGNTVSMVAGLQNSVSNMGGVVGPIVTGAIVGATGSFIPALVFSAALIGLAILNYLFLLGKVEPIAFEPNPATLNPNSHGRSNADARA”, “failed”. Consider “MQEAEAIYQSGMKILNGSTRKNQKREAYRYLQKAAGMNHTKALERVSYALLFGDYLTQNIQAAKEMFEKLTEEGSPKGQTGLGFLYASGLGVNSSQAKALVYYTFGALGGNLIAHMVLGYRYWAGIGVLQSCESALTHYRLVANHVASDISLTGGSVVQRIRLPDEVENPGMNSGMLEEDLIQYYQFLAEKGDVQAQVGLGQLHLHGGRGVEQNHQRAFDYFNLAANAGNSHAMAFLGKMYSEGSDIVPQSNETALHYFKKAADMGNPVGQSGLGMAYLYGRGVQVNYDLALKYFQKAAEQGWVDGQLQLGSMYYNGIGVKRDYKQALKYFNLASQGGHILAFYNLAQMHASGTGVMRSCHTAVELFKNVCERGRWSERLMTAYNSYKDDDYNAAVVQYLLLAEQGYEVAQSNAAFILDQREATIVGENETYPRALLHWNRAASQGYTVARIKLGDYHFYGFGTDVDYETAFIHYRLASEQQHSAQAMFNLGYMHEKGLGIKQDIHLAKRFYDMAAEASPDAQVPVFLALCKLGVVYFLQYIREANIRDLFTQLDMDQLLGPEWDLYLMTIIALLLGTVIAYRQRQHQDIPVPRPPGPRPAPPQQEGPPEQQPPQ”, for which the protein production result is reported as “failed”. “MQECTNVQVSKMMLSAPQHLVGGSVSEITPNRDLSLDSMHTSQVKQNIRALWTALVLLSVFFCIELSAGIWSHSLSLLADAEHILSDVAALGLALIASWLSQSISQRTIFGRYKLEVLAALINGISLACIACWIVREALVRLQSPTTEILGVPMLTTALIGVGVNSFNALCLHKCSHKDLNIRGALLHLIADLASSVGAVLAAIAIIWLNWTWADGVISLVVAMLIASFAAYLLIQSVQCLRGQIADISDIACMCPPQSEVCVDRQQAEKLLFPTLEELVQ”: the protein production entry was “failed”. “MQEELAWETDGLLPLERQLHEAARQNNVGRMQELIGRRVNTRARNHVGRVALHWAAGAGHEQAVRLLLEHEAAVDEEDAVGALTEARLCFGMNALLLSAWFGHLRILQILVNSGAKIHCESKDGLTLLHCAAQKGHVPVLAFIMEDLEDVALDHVDKLGRTAFHRAAEHGQLDALDFLVGSGCDHNVKDKEGNTALHLAAGRGHMAVLQRLVDIGLDLEEQNAEGLTALHSAAGGSHPDCVQLLLRAGSTVNALTQKNLSCLHYAALSGSEDVSRVLIHAGGCANVVDHQGASPLHLAVRHNFPALVRLLINSDSDVNAVDNRQQTPLHLAAEHAWQDIADMLLIAGVDLNLRDKQGKTALAVAVRSNHVSLVDMIIKADRFYRWEKDHPSDPSGKSLSFKQDHRQETQQLRSVLWRLASRYLQPREWKKLAYSWEFTEAHVDAIEQQWTGTRSYQEHGHRMLLIWLHGVATAGENPSKALFEGLVAIGRRDLAGWSTMARSQLTATSASRVQMILVPQPPE”: the protein production result is “failed”.

With “MQEESHIEEVEIQNKLEVAPALISVHPSQKSVAVAVGSDLRIFDLIENCPVSLVDESDGPIRKESIRAIRYSTSGKLFVSAGDDKLVKIWSADSWRCLNTVCSEKRVSAVAISSDDSHVCYADKFGVVWVIELDGINDGKTLPSKKGALLLSHYCSIITSLEFSPDGRYILSADRDFKIRVTVFPKKPLEGAHEIQSFCLGHSEFITCTAFVSTPELTQGYLMSGSGDSTVRLWDITSGSLLDTCEVSTVAGHAESNENESPTQVTVTDICAIPNSSLAAVAIQSFQGIFLLSCDLTAHTLSITKVIKIPGESFIPTSIAVSASSRLLWMVSGASNLPGSNHPGFSRVRVISCLETESSSILEDEQIPGGTKLLEQLQGKVTIEESVMSAAAEAVRAAMSSLLMKKQYSEEKREFRKRTRNDKKTTR”, the protein production result is given as “failed”. “MQEGNFKAGTYSAARQGIGGDVTVTLDIDAQGKVLKSTIDALEETPEVGGEAAIELAKTMTEKQSIQVDGVSGATMTSGAVHEAAEDAYSQAKANLEHHHHHH”: the protein production entry is on record as “not failed”. Take “MQEIEIFCDGSSLGNPGPGGYAAILRYKDKEKTISGGEEFTTNNRMELRALNEALKILKRPCRITLYSDSQYVCQAINVWLANWQKKNFSKVKNVDLWKEFLEVSKGHSIVAVWIKGHNGHAENERCDSLAKLEAQKRVKTTT”: the protein production entry was “failed”. In the case of “MQESVVRVDYDSLETCKNFKPSVGTELIVLEKDIAHARFKGNESMVYEENFVHAGFVLIACNYAALCALNKRHSVVVSNNINFYAPLELNQEALIKAQVIQDGVKKAEIKIEAFVLDIQVLEGMIEIVVFDKKPFKFNFKEELEHHHHHH”, the protein production result is reported as “failed”. Regarding “MQETDSGAGPRTLRRGLMVLAALRDQGPRGLSVTDIARQTGIQRPTIYRLLAALLDAGLVVPLQGTKKYRTQLAADADLAAPNPRVRQMLPVLRRLADRTGDAVFLVVRDGDDSVSLHREIGSYPVQILATYAGKRQPLGVGSGSMALLAALPDEVAHAIVQRNSGRLDEYGGMTPQEMHRLIENTRARGYSVVGNHAVRGALGVGCALLDAQGAPVLAVSVTAIIDRMPAQRQREIAGWIGAELARLAPKA”, the protein production entry is listed as “failed”.

As to “MQFFGGSEISPSPPVPTASGNNAHMMYVFNRNGVCLLYKEWNRPLHTLNPQQDHKLMFGLLFSLKSLTAKMDPVNADKGNLGVPQLPGQGCSFHSFRTNTYKLSFMETPSGIKIILVTHPKTGDLRESLKYIYSLYVEYVVKNPIYSPGSPIKSELFNTALDQYVRSIS”, the protein production result is “failed”.

Regarding “MQFGIFTVGDVTPDPTTGRTPTEHERIKAMTTIAKHAEDVGLDVFATGEHHNPPFVPSSPTTMLGYLAAQTEKIILSTSTTLITTNDPVKIAEDYAMLQHLADGRVDLMMGRGNTAPVYPWFGQDIRQGIPLALEHYRLLRRLWDEDVVDWQGQFRTPLQGFTSTPRPLDGIAPFVWHGSIRSPEIAEIAAFHGDGFFANNIFWPKEHYIALINLYRERYEHYGHGRADQAIVGLGGQVFMRRNAKDAVDEFRPYFDNAPVYGHGPSLEDFTEQTPLTVGTPEQVIEKTLTFADFFGDYQRQLFLVDHAGLPLKTVLEQLDLLGGEVVPVLRKEFAARR”, the protein production result is “failed”. On to “MQFIKNLQLNKKKDSDSSEQVLTNKKNKMKYEDFNFIRTLGTGSFGRVILATYKNGNYPPVAIKRFEKCKIIRQKQVDHVFSERKILNYINHPFCVNLHGSFKDDSYLYLVLEFVIGGEFFTFLRRNKRFPNDVGCFYAAQIVLIFEYLQSLNIVYRDLKPENLLLDKDGFIKMTDFGFAKIVETRTYTLCGTPEYIAPEILLNVGHGKAADWWTLGIFIYEILVGCPPFYANEPLLIYQKILEGIIYFPKFLDNNCKHLMKKLLSHDLTKRYGNLKKGAQNVKEHPWFSNIDWVNLLNKNVEVPYKPKYKNIFDSSNFERVQEDLTIADKITNENDPFYDW”, for which the protein production result was “failed”.

Take “MQFIPPILCKMNGRRQLNMHQQTKRLITISMLSAVAFILMFIKFPIPFLPPYLTLDFGDVPALLATFILGPVAGLIVEFIKNLLNFLFNIGDPVGPVANFLAASSFLLTAYFVTKYKDKIKSQIVGLSIATVVMTIVLSILNYFVLLPLYGMIMNLSDVVENVKIVIVSGVIPFNIIKGIVISIIFILLYNRLKNVLPK”: the protein production entry is “failed”.

“MQFIVSKKEFIPPVIAPDIIETLGDDYEIWTYEDYERLPPLLVGVYSYSAIPKCLAPLSTQGLVKSGVFRLQREFVPGLYGNGVYVVVIDTGVNYAQEAFMTPEGKTKIAVLWDQNTDTVYSEDEINAAILSENPYESIPGDEDGHGTFVASVICGNDRPQDDFAGVAPQAKLIVVKLKRAPQKLYDFYFIPDRKMVYSEVDVMRAVHFADEFAGQKGAPAVFCMALGCNNGSHTGAEDLSEYLDYITAKRGRAVVAAAGNEANSRHHYKGRITDTVDDIEINVEQDMDGFYLECWALSPELFTLSVISPSGQSNPAGVPMRIDSGEYSFLLEGTQVTIDYRQTGRQTRDLLIFIRFEKVVKGVWTIRVFPLSTIGGVFNMWLPMTGLLDADVSFIVSEPDTTLTMPSDAKLVITAGGYNSLNDAILLESGRGFDADGGIKPDLVAPAVDITGANLRGMYIALSGTSAAAAITAAVAALIMEWMIVRGNVLLANGVDIKNVMVRNCRRKEKTDYPNKIFGYGFMNGFANF”: the protein production result is “failed”. “MQFQDVRLMRVVVCRRLGPAKGQRRWHPLDLGTTGCFENLGAQRPTYRMRAIRMLECAMPNRLVRSLQRWRPFGLPPHRWRLAPWYWRGLQVTLEPGSAIAWIVRLTGGFEETEIDIAAALYSALYPDRCILDVGANVGIHSLAWARLAPVVALEPAPGTHSRLEANVAANGLQDRIRTLRTAAGDAVGEVDFFVAADSAFSSLNDTGRIRIRERTRVPCTTLDALAAELPLPVGLLKIDVEGLERAVIAGAAELLRRDRPVLLVEIYGGAASNPDPERTIADIRAYGYEPFVYADDAGLQPYQRHRDDRYCYFFIPSRKG”: the protein production result is “failed”. Turning to “MQGGMMKQLVVAGFFLLLLTSPLSALDVDTYRSSQKQFNTEDKAEQGDAQAQFELGLKYEKGDGVNKDLKKAIYWYQKAADQGQAEAQNNLGVLYLKGEGVPQNSQQAMYWFKKASEQGLAIGQNNIGILYENGLGVKKDPGQAFIWYQKAAEGGNSDGQYNLAVMYMYGNGIPKDIKKAIHWYIKAAEQGDLDAQNNLGVLYERGEEVPRDLKAAISWYTRAANEGSLIAQTNLGVLYMTGDPSIQDGKKAIYWYEKAAAQGGEKAQNNLGYIYEQGIGTEKDMKKAIYWYEKAAENGFTLAQNNLGVLYSNDGELQDYKKAYLWFKKAADQGFAEAQNNLGLMYMKGNGLSVNYHEAVLWYKRAAEQGLPLAQHNLAIMYMKGLGIKKDNKLAIKWYQKAAEKGLDLAQNNLAVMYIRGEGVKRDFKKAMYWYQKAAEQGLDLAQINLGIMYLDGMGVNKDFAKAKYWIGKAKDSGSQDALTIWNKNKLWKYQ”, the protein production entry was “failed”. As for “MQGIGEGVRRAFPIVLGYVPVGFAFGVLALKSGIPAWGALAMSLFVFAGSGQLIAVGLIGGGAPLASVVLTTFVVNLRHLLMSAALAPRLRDWGLLRQALFSAEMTDETFAVHVSTLRGEADDPSRAAVFACNVTAHAAWVGGSALGVFCSTLVADVRPLGLDYALAAMFIALLLPQCRSRAHLFAALVAGACSVGFALSGAGRWNVMLATVCAATLVSLLPVGKTSTTREEMGTPGGEGGAHAD”, the protein production entry is given as “failed”.
